Data as given in US20210388107A1 (BYONDIS B V, published 2021).
Like-named read-outs stand apart in the source and are kept apart here. Each block holds one binder with its values, some of them ahead of it.

How the values were obtained:
[1] = biological target: T1, human SIRPαBIT expressed on cells (human, UniProt P78324 31-504); test: flow cytometry, U937 cells
T1 construct: endogenous on U937 cells or transiently expressed on ExpiCHO-S cells; in the SHP-1 assay a ProLink-tagged form on Jurkat cells; also called huSIRPαBIT; U937 cells (huSIRPαBIT)
Method in brief: (§1)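 Cells bound with antibody, then labelled at 4 °C for 30 min with anti-human IgG-APC or anti-mouse IgG-Alexa Fluor 488 secondary. Read-out is median fluorescence intensity for U937 and mean fluorescence intensity for ExpiCHO-S. EC₅₀ in μg/ml from a 4-parameter logistic fit.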

[2] = biological target: T1, human SIRPαBIT expressed on cells; test: flow cytometry, U937 cells; remark: listed apart in the source
Method in brief: (§2)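 After 30 min at 4° C., cells were washed and stained with APC-labelled anti-human IgG F(ab′)₂ (1:6,000) for 30 min at 4° C. Read-out was median fluorescence intensity for U937 and mean fluorescence intensity for ExpiCHO-S cells. EC₅₀ (μg/ml) came from a four-parameter logistic fit.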
Target sequence in this assay (P78324 31-504 limits assumed): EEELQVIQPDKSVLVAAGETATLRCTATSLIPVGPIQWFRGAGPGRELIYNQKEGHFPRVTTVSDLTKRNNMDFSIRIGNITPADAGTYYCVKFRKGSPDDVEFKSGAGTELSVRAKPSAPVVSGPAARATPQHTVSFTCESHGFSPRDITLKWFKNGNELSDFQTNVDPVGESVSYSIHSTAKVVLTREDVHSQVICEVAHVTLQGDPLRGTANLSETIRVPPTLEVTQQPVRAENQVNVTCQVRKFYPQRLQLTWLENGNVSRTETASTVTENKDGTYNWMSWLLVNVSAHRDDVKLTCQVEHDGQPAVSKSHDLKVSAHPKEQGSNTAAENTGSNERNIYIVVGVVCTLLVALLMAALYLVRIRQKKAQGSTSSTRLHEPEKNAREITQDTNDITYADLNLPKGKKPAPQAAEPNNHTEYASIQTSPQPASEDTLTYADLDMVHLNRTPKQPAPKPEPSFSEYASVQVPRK

[3] = biological target: T2, human SIRPα1 expressed on cells (human, UniProt P78324 31-504); test: flow cytometry, ExpiCHO-S cells
T2 construct: whole, on cells; also called huSIRPα1; ExpiCHO-S (huSIRPα1)
Method in brief: as §1

[4] = biological target: T1, human SIRPαBIT expressed on cells; test: flow cytometry, ExpiCHO-S cells
Method in brief: as §1

[5] = biological target: T3, cynomolgus monkey SIRPα expressed on ExpiCHO-S cells (cynomolgus monkey, UniProt A0A2K5VYQ9 31-507); test: flow cytometry, ExpiCHO-S cells
T3 construct: whole, on cells; also called cySIRPα; ExpiCHO-S (cySIRPα)
T3 sequence: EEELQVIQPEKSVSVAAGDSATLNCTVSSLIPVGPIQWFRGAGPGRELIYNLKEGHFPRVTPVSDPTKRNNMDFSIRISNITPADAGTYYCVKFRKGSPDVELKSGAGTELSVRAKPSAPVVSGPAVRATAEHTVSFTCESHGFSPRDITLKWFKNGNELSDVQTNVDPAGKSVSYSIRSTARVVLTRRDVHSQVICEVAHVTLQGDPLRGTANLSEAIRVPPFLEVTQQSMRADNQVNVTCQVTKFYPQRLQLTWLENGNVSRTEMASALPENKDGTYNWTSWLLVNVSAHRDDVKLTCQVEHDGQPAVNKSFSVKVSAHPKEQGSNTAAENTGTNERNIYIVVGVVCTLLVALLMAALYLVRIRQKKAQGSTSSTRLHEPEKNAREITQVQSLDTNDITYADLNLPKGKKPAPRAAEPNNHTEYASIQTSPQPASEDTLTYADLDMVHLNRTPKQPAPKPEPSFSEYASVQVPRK
Method in brief: as §1

[6] = biological target: T2, human SIRPα1 expressed on cells; test: flow cytometry, ExpiCHO-S cells; remark: listed apart in the source
Method in brief: as §2
Target sequence in this assay (P78324 other isoform, or with tags, fused parts or gaps limits assumed): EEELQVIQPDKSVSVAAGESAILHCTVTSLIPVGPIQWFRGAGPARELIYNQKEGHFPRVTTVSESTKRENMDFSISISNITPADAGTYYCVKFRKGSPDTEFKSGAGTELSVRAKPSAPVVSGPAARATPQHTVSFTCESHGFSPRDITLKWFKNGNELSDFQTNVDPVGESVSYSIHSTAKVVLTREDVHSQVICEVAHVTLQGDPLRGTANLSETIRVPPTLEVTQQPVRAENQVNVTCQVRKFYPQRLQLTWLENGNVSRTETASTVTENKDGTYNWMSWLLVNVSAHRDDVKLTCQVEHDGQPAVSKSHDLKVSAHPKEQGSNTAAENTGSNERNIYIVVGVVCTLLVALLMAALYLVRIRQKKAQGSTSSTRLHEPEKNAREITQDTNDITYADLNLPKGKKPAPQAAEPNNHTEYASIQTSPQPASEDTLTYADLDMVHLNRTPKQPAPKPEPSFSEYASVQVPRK

[7] = biological target: T1, human SIRPαBIT expressed on cells; test: flow cytometry, ExpiCHO-S cells; remark: listed apart in the source
Method in brief: as §2
Target sequence in this assay (P78324 31-504 limits assumed): as the sequence (P78324 31-504 limits assumed) above

[8] = biological target: T1, human SIRPαBIT expressed on cells; test: cell-based or functional assay
Target sequence in this assay (P78324 31-504 limits assumed): as above

[9] = biological target: T4, human SIRPγ, extracellular domain, Avi-FXa-Fc tag (human, biotinylated); test: SPR, captured biotinylated antigen
T4 construct: also called huSIRPγ
T4 sequence (chain, as listed by the source limits assumed): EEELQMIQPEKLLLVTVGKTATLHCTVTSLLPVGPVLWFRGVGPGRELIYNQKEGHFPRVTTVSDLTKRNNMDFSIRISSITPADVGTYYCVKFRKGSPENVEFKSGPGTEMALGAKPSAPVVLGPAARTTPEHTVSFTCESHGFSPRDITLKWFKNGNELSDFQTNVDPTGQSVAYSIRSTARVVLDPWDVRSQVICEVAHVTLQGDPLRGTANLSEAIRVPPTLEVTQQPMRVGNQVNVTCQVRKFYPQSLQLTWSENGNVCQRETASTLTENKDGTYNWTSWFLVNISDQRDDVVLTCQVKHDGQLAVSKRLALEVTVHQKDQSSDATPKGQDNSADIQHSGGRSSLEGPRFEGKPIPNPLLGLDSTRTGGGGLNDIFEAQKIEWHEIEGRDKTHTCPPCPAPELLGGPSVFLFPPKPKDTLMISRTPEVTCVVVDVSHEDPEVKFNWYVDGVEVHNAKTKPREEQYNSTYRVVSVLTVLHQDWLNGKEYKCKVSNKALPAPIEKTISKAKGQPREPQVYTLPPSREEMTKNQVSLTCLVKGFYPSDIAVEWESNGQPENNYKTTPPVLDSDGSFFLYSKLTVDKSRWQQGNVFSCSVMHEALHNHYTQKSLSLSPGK

B2: HEFLB (humanized IgG4) (antibody, V domains shown)
VH: EVQLVQSGAEVKKPGESLRISCKASGYSFTSYWVHWVRQMPGKGLEWMGNIDPSDSDTHYSPSFQGHVTLSVDKSISTAYLQLSSLKASDTAMYYCVRGGTGTLAYFAYWGQGTLVTVSS
VL: DVVMTQSPLSLPVTLGQPASISCRSSQSLVHSYGNTYLYWFQQRPGQSPRLLIYRVSNRFSGVPDRFSGSGSGTDFTLKISRVEAEDVGVYYCFQGTHVPYTFGGGTKVEIKR
notes: humanized IgG4 of WO 2017/178653; also called humanized HEFLB
EC50 [1]: 0.25 µg/mL
EC50 [3]: > 30 µg/mL
EC50 [4]: 0.15 µg/mL
EC50 [5]: > 30 µg/mL

B3: 29AM4-5-LALA (IgG1) (antibody, V domains shown)
VH: EVQLVESGGGLVQPGGSLRLSCAASGFNISYYFIHWVRQAPGKGLEWVASVYSSFGYTYYADSVKGRFTISADTSKNTAYLQMNSLRAEDTAVYYCARFTFPGLFDGFFGAYLGSLDYWGQGTLVTVSS
VL: DIQMTQSPSSLSASVGDRVTITCRASQSVSSAVAWYQQKPGKAPKLLIYSASSLYSGVPSRFSGSRSGTDFTLTISSLQPEDFATYYCQQAVNWVGALVTFGQGTKVEIKR
notes: human IgG1 LALA, kappa; also called 29AM4-5huIgG1LALA
EC50 [1]: 0.17 µg/mL
EC50 [3]: 0.09 µg/mL
EC50 [4]: 0.12 µg/mL
EC50 [5]: 0.13 µg/mL
Kd [9]: 445 pM

More lines, now with the values ahead:

EC50 [1]: 0.14 µg/mL
EC50 [2]: 0.09 µg/mL
EC50 [3]: 0.24 µg/mL
EC50 [4]: 0.18 µg/mL
EC50 [5]: 0.13 µg/mL
EC50 [6]: 0.06 µg/mL
EC50 [7]: 0.01 µg/mL
IC50 (read off the curve), CD47-driven SHP-1 recruitment to SIRPαBIT [8]: ~0.2 µg/mL
B1: humanized anti-SIRPα antibody 6 (antibody, human IgG1, kappa, L234A L235A, V domains shown)
VH: RQLVESGGGLVQPGGSLRLSCTASGFSLSSHGISWVRQAPGKGLEYIGTIGTGVITYFASWAKGRFTGSKTSSTAYMELSSLRSEDTAVYFCARGSAWNDPFDPWGQGTLVTVSS
VL: DIVMTQSPSSLSASVGDRVTITCQASQSVYGNNDLAWYQQKPGQAPKLLIYLASTLATGVPSRFSGSGSGTDFTLTISSLQPEDFATYYCLGGGDDEADNTFGQGTKVEIKR
notes: human IgG1 LALA, kappa; also called mAb 6

EC50 [1]: 0.07 µg/mL
EC50 [2]: 0.07 µg/mL
EC50 [3]: 0.19 µg/mL
EC50 [4]: 0.19 µg/mL
EC50 [6]: 0.14 µg/mL
EC50 [7]: 0.16 µg/mL
Kd [9]: < 10 pM
B4: KWAR23-LALA (chimeric IgG1, LALA) (antibody)
heavy: not shown
light: QIVLTQSPAIMSASPGEKVTLTCSASSSVSSSYLYWYQQKPGSSPKLWIYSTSNLASGVPARFSGSGSGTSYSLTISSMEAEDAASYFCHQWSSYPRTFGAGTKLELKRTVAAPSVFIFPPSDEQLKSGTASVVCLLNNFYPREAKVQWKVDNALQSGNSQESVTEQDSKDSTYSLSSTLTLSKADYEKHKVYACEVTHQGLSSPVTKSFNRGEC
notes: chimeric human IgG1 LALA, kappa; also called KWAR23huIgG1LALA
